The star is where a group is joined. Octanoyl = CCCCCCCC(=O)*; Octyl = CCCCCCCC*
B1: H-PS-S(O-octyl)-FLSPEHQRVQRKESKKPPAKLQPR-NH2 (peptide)
peptide: H-PSS(Octyl)FLSPEHQRVQRKESKKPPAKLQPR-NH2
SMILES: CCCCCCCCOC[C@H](NC(=O)[C@H](CO)NC(=O)[C@@H]1CCCN1)C(=O)N[C@@H](Cc1ccccc1)C(=O)N[C@@H](CC(C)C)C(=O)N[C@@H](CO)C(=O)N1CCC[C@H]1C(=O)N[C@@H](CCC(=O)O)C(=O)N[C@@H](Cc1c[nH]cn1)C(=O)N[C@@H](CCC(N)=O)C(=O)N[C@@H](CCCNC(=N)N)C(=O)N[C@H](C(=O)N[C@@H](CCC(N)=O)C(=O)N[C@@H](CCCNC(=N)N)C(=O)N[C@@H](CCCCN)C(=O)N[C@@H](CCC(=O)O)C(=O)N[C@@H](CO)C(=O)N[C@@H](CCCCN)C(=O)N[C@@H](CCCCN)C(=O)N1CCC[C@H]1C(=O)N1CCC[C@H]1C(=O)N[C@@H](C)C(=O)N[C@@H](CCCCN)C(=O)N[C@@H](CC(C)C)C(=O)N[C@@H](CCC(N)=O)C(=O)N1CCC[C@H]1C(=O)N[C@@H](CCCNC(=N)N)C(N)=O)C(C)C
B2: H-PS-S(octanoyl)-FLSPYHQRVQYRKESKKPPAYLQPR-NH2 (peptide)
peptide: H-PSS(Octanoyl)FLSPYHQRVQYRKESKKPPAYLQPR-NH2
SMILES: CCCCCCCC(=O)OC[C@H](NC(=O)[C@H](CO)NC(=O)[C@@H]1CCCN1)C(=O)N[C@@H](Cc1ccccc1)C(=O)N[C@@H](CC(C)C)C(=O)N[C@@H](CO)C(=O)N1CCC[C@H]1C(=O)N[C@@H](Cc1ccc(O)cc1)C(=O)N[C@@H](Cc1c[nH]cn1)C(=O)N[C@@H](CCC(N)=O)C(=O)N[C@@H](CCCNC(=N)N)C(=O)N[C@H](C(=O)N[C@@H](CCC(N)=O)C(=O)N[C@@H](Cc1ccc(O)cc1)C(=O)N[C@@H](CCCNC(=N)N)C(=O)N[C@@H](CCCCN)C(=O)N[C@@H](CCC(=O)O)C(=O)N[C@@H](CO)C(=O)N[C@@H](CCCCN)C(=O)N[C@@H](CCCCN)C(=O)N1CCC[C@H]1C(=O)N1CCC[C@H]1C(=O)N[C@@H](C)C(=O)N[C@@H](Cc1ccc(O)cc1)C(=O)N[C@@H](CC(C)C)C(=O)N[C@@H](CCC(N)=O)C(=O)N1CCC[C@H]1C(=O)N[C@@H](CCCNC(=N)N)C(N)=O)C(C)C
B3: H-PS-S(octanoyl)-FLSPEHQRVQYRKESKKPPAKLQPR-NH2 (peptide)
peptide: H-PSS(Octanoyl)FLSPEHQRVQYRKESKKPPAKLQPR-NH2
SMILES: CCCCCCCC(=O)OC[C@H](NC(=O)[C@H](CO)NC(=O)[C@@H]1CCCN1)C(=O)N[C@@H](Cc1ccccc1)C(=O)N[C@@H](CC(C)C)C(=O)N[C@@H](CO)C(=O)N1CCC[C@H]1C(=O)N[C@@H](CCC(=O)O)C(=O)N[C@@H](Cc1c[nH]cn1)C(=O)N[C@@H](CCC(N)=O)C(=O)N[C@@H](CCCNC(=N)N)C(=O)N[C@H](C(=O)N[C@@H](CCC(N)=O)C(=O)N[C@@H](Cc1ccc(O)cc1)C(=O)N[C@@H](CCCNC(=N)N)C(=O)N[C@@H](CCCCN)C(=O)N[C@@H](CCC(=O)O)C(=O)N[C@@H](CO)C(=O)N[C@@H](CCCCN)C(=O)N[C@@H](CCCCN)C(=O)N1CCC[C@H]1C(=O)N1CCC[C@H]1C(=O)N[C@@H](C)C(=O)N[C@@H](CCCCN)C(=O)N[C@@H](CC(C)C)C(=O)N[C@@H](CCC(N)=O)C(=O)N1CCC[C@H]1C(=O)N[C@@H](CCCNC(=N)N)C(N)=O)C(C)C
B4: H-PS-S(octanoyl)-FLSPEHQRVQQRKESKKPPAYLQPR-NH2 (peptide)
peptide: H-PSS(Octanoyl)FLSPEHQRVQQRKESKKPPAYLQPR-NH2
SMILES: CCCCCCCC(=O)OC[C@H](NC(=O)[C@H](CO)NC(=O)[C@@H]1CCCN1)C(=O)N[C@@H](Cc1ccccc1)C(=O)N[C@@H](CC(C)C)C(=O)N[C@@H](CO)C(=O)N1CCC[C@H]1C(=O)N[C@@H](CCC(=O)O)C(=O)N[C@@H](Cc1c[nH]cn1)C(=O)N[C@@H](CCC(N)=O)C(=O)N[C@@H](CCCNC(=N)N)C(=O)N[C@H](C(=O)N[C@@H](CCC(N)=O)C(=O)N[C@@H](CCC(N)=O)C(=O)N[C@@H](CCCNC(=N)N)C(=O)N[C@@H](CCCCN)C(=O)N[C@@H](CCC(=O)O)C(=O)N[C@@H](CO)C(=O)N[C@@H](CCCCN)C(=O)N[C@@H](CCCCN)C(=O)N1CCC[C@H]1C(=O)N1CCC[C@H]1C(=O)N[C@@H](C)C(=O)N[C@@H](Cc1ccc(O)cc1)C(=O)N[C@@H](CC(C)C)C(=O)N[C@@H](CCC(N)=O)C(=O)N1CCC[C@H]1C(=O)N[C@@H](CCCNC(=N)N)C(N)=O)C(C)C
B5: H-PS-S(octanoyl)-FLSPEHQRVQQRKESKKPPASLQPR-NH2 (peptide)
peptide: H-PSS(Octanoyl)FLSPEHQRVQQRKESKKPPASLQPR-NH2
SMILES: CCCCCCCC(=O)OC[C@H](NC(=O)[C@H](CO)NC(=O)[C@@H]1CCCN1)C(=O)N[C@@H](Cc1ccccc1)C(=O)N[C@@H](CC(C)C)C(=O)N[C@@H](CO)C(=O)N1CCC[C@H]1C(=O)N[C@@H](CCC(=O)O)C(=O)N[C@@H](Cc1c[nH]cn1)C(=O)N[C@@H](CCC(N)=O)C(=O)N[C@@H](CCCNC(=N)N)C(=O)N[C@H](C(=O)N[C@@H](CCC(N)=O)C(=O)N[C@@H](CCC(N)=O)C(=O)N[C@@H](CCCNC(=N)N)C(=O)N[C@@H](CCCCN)C(=O)N[C@@H](CCC(=O)O)C(=O)N[C@@H](CO)C(=O)N[C@@H](CCCCN)C(=O)N[C@@H](CCCCN)C(=O)N1CCC[C@H]1C(=O)N1CCC[C@H]1C(=O)N[C@@H](C)C(=O)N[C@@H](CO)C(=O)N[C@@H](CC(C)C)C(=O)N[C@@H](CCC(N)=O)C(=O)N1CCC[C@H]1C(=O)N[C@@H](CCCNC(=N)N)C(N)=O)C(C)C
B6: H-PS-S(octanoyl)-FLSPEHQRVQQRKESKKPPAKLQPS-NH2 (peptide)
peptide: H-PSS(Octanoyl)FLSPEHQRVQQRKESKKPPAKLQPS-NH2
SMILES: CCCCCCCC(=O)OC[C@H](NC(=O)[C@H](CO)NC(=O)[C@@H]1CCCN1)C(=O)N[C@@H](Cc1ccccc1)C(=O)N[C@@H](CC(C)C)C(=O)N[C@@H](CO)C(=O)N1CCC[C@H]1C(=O)N[C@@H](CCC(=O)O)C(=O)N[C@@H](Cc1c[nH]cn1)C(=O)N[C@@H](CCC(N)=O)C(=O)N[C@@H](CCCNC(=N)N)C(=O)N[C@H](C(=O)N[C@@H](CCC(N)=O)C(=O)N[C@@H](CCC(N)=O)C(=O)N[C@@H](CCCNC(=N)N)C(=O)N[C@@H](CCCCN)C(=O)N[C@@H](CCC(=O)O)C(=O)N[C@@H](CO)C(=O)N[C@@H](CCCCN)C(=O)N[C@@H](CCCCN)C(=O)N1CCC[C@H]1C(=O)N1CCC[C@H]1C(=O)N[C@@H](C)C(=O)N[C@@H](CCCCN)C(=O)N[C@@H](CC(C)C)C(=O)N[C@@H](CCC(N)=O)C(=O)N1CCC[C@H]1C(=O)N[C@@H](CO)C(N)=O)C(C)C
B7: H-PS-S(octanoyl)-FLSPEHQRVQQRKESSKPPAKLQPR-NH2 (peptide)
peptide: H-PSS(Octanoyl)FLSPEHQRVQQRKESSKPPAKLQPR-NH2
SMILES: CCCCCCCC(=O)OC[C@H](NC(=O)[C@H](CO)NC(=O)[C@@H]1CCCN1)C(=O)N[C@@H](Cc1ccccc1)C(=O)N[C@@H](CC(C)C)C(=O)N[C@@H](CO)C(=O)N1CCC[C@H]1C(=O)N[C@@H](CCC(=O)O)C(=O)N[C@@H](Cc1c[nH]cn1)C(=O)N[C@@H](CCC(N)=O)C(=O)N[C@@H](CCCNC(=N)N)C(=O)N[C@H](C(=O)N[C@@H](CCC(N)=O)C(=O)N[C@@H](CCC(N)=O)C(=O)N[C@@H](CCCNC(=N)N)C(=O)N[C@@H](CCCCN)C(=O)N[C@@H](CCC(=O)O)C(=O)N[C@@H](CO)C(=O)N[C@@H](CO)C(=O)N[C@@H](CCCCN)C(=O)N1CCC[C@H]1C(=O)N1CCC[C@H]1C(=O)N[C@@H](C)C(=O)N[C@@H](CCCCN)C(=O)N[C@@H](CC(C)C)C(=O)N[C@@H](CCC(N)=O)C(=O)N1CCC[C@H]1C(=O)N[C@@H](CCCNC(=N)N)C(N)=O)C(C)C
B8: H-PS-S(octanoyl)-FLSPYHQRVQQRKESKKPPAKLQPR-NH2 (peptide)
peptide: H-PSS(Octanoyl)FLSPYHQRVQQRKESKKPPAKLQPR-NH2
SMILES: CCCCCCCC(=O)OC[C@H](NC(=O)[C@H](CO)NC(=O)[C@@H]1CCCN1)C(=O)N[C@@H](Cc1ccccc1)C(=O)N[C@@H](CC(C)C)C(=O)N[C@@H](CO)C(=O)N1CCC[C@H]1C(=O)N[C@@H](Cc1ccc(O)cc1)C(=O)N[C@@H](Cc1c[nH]cn1)C(=O)N[C@@H](CCC(N)=O)C(=O)N[C@@H](CCCNC(=N)N)C(=O)N[C@H](C(=O)N[C@@H](CCC(N)=O)C(=O)N[C@@H](CCC(N)=O)C(=O)N[C@@H](CCCNC(=N)N)C(=O)N[C@@H](CCCCN)C(=O)N[C@@H](CCC(=O)O)C(=O)N[C@@H](CO)C(=O)N[C@@H](CCCCN)C(=O)N[C@@H](CCCCN)C(=O)N1CCC[C@H]1C(=O)N1CCC[C@H]1C(=O)N[C@@H](C)C(=O)N[C@@H](CCCCN)C(=O)N[C@@H](CC(C)C)C(=O)N[C@@H](CCC(N)=O)C(=O)N1CCC[C@H]1C(=O)N[C@@H](CCCNC(=N)N)C(N)=O)C(C)C
B9: H-PS-S(octanoyl)-FLSPEHQRVQQRKESKSPPAKLQPR-NH2 (peptide)
peptide: H-PSS(Octanoyl)FLSPEHQRVQQRKESKSPPAKLQPR-NH2
SMILES: CCCCCCCC(=O)OC[C@H](NC(=O)[C@H](CO)NC(=O)[C@@H]1CCCN1)C(=O)N[C@@H](Cc1ccccc1)C(=O)N[C@@H](CC(C)C)C(=O)N[C@@H](CO)C(=O)N1CCC[C@H]1C(=O)N[C@@H](CCC(=O)O)C(=O)N[C@@H](Cc1c[nH]cn1)C(=O)N[C@@H](CCC(N)=O)C(=O)N[C@@H](CCCNC(=N)N)C(=O)N[C@H](C(=O)N[C@@H](CCC(N)=O)C(=O)N[C@@H](CCC(N)=O)C(=O)N[C@@H](CCCNC(=N)N)C(=O)N[C@@H](CCCCN)C(=O)N[C@@H](CCC(=O)O)C(=O)N[C@@H](CO)C(=O)N[C@@H](CCCCN)C(=O)N[C@@H](CO)C(=O)N1CCC[C@H]1C(=O)N1CCC[C@H]1C(=O)N[C@@H](C)C(=O)N[C@@H](CCCCN)C(=O)N[C@@H](CC(C)C)C(=O)N[C@@H](CCC(N)=O)C(=O)N1CCC[C@H]1C(=O)N[C@@H](CCCNC(=N)N)C(N)=O)C(C)C

Target: human growth hormone secretagogue receptor type 1a (human, UniProt Q92847 1-366)
Sequence (Q92847 whole entry): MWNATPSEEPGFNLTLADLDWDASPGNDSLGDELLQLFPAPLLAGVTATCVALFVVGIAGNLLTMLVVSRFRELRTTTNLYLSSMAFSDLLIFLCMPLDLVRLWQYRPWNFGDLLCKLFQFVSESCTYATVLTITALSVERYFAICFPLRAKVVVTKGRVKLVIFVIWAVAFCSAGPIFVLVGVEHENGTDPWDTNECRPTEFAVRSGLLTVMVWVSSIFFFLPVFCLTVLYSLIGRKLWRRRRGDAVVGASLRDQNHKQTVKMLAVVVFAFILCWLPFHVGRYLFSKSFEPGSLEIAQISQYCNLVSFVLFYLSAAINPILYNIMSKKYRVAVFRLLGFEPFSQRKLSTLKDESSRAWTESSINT
Assay: cell-based or functional assay

**Q.** How did the “EC50 (nM); Ca2+ induction in HEK293 cells stably expressing the human ghrelin receptor” value (shortened to “EC50 (nM); Ca2+ induction”) turn out when B1 was run?
**A.** 0.33 nM

**Q.** For B2, which “EC50 (nM); Ca2+ induction” value is on record?
**A.** 0.594 nM

**Q.** With XSSFLSPEHQRVQQRKESKKPPAKLQPR (DPro at position 1; Ser(O-octanoyl) at position 3; C-terminal -OH) [H-[DPro]-S-S(O-octanoyl)-FLSPEHQRVQQRKESKKPPAKLQPR-OH] as the binder, how does the “EC50 (nM); Ca2+ induction” value read?
**A.** 0.786 nM

**Q.** B3 was tested. Which “EC50 (nM); Ca2+ induction” value did it give?
**A.** 0.198 nM

**Q.** B4 was tested. Which “EC50 (nM); Ca2+ induction” value did it give?
**A.** 0.252 nM

**Q.** Which “EC50 (nM); Ca2+ induction” value does the source give for B5 here?
**A.** 0.183 nM

**Q.** How did the “EC50 (nM); Ca2+ induction” value turn out when H-PSS(Octyl)FLSPEHQRVQQRKESKKPPAKLQPR-NH2 [H-PS-S(O-octyl)-FLSPEHQRVQQRKESKKPPAKLQPR-NH2] was run?
**A.** 0.396 nM

**Q.** With B6 as the binder, how does the “EC50 (nM); Ca2+ induction” value read?
**A.** 0.039 nM

**Q.** B7 was tested. Which “EC50 (nM); Ca2+ induction” value did it give?
**A.** 0.095 nM

**Q.** For B8, which “EC50 (nM); Ca2+ induction” value is on record?
**A.** 0.719 nM

**Q.** How did the “EC50 (nM); Ca2+ induction” value turn out when B9 was run?
**A.** 0.086 nM

From patent US9657062B2, “Ghrelin analogues” (Zealand Pharma A/S, priority 2012, dated 2017)
